For 84 variants, reverse-splicing fitness results are on record in the RNAGym collection of RNA variant scans (doi:10.1093/molbev/msab373).

B1: Azoarcus group I ribozyme (parent)
chain: GUGCCUUGCGCCGGGAAACCACGCAAGGGAUGGUGUCAAAUUCGGCGAAACCUAAGCGCCCGCCCGGGCGUAUGGCAACGCCGAGCCAAGCUUCGGCGCCUGCGCCGAUGAAGGUGUAGAGACUAGACGGCACCCACCUAAGGCAAACGCUAUGGUGAAGGCAUAGUCCAGGGAGUGGCGAAAGUCACACAAACCGG

The data set covers variants of B1. In words: reverse-splicing fitness (ratio to wild type); higher = more active; in vitro selection; Mg2+ level not given. The gist of the method: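 An in vitro group I ribozyme library with randomized positions was T7-transcribed and gel-purified. In triplicate, 10 pmol RNA in EPPS pH 7.5 was reacted with 50 pmoles of a 30-nt RNA substrate for 1 h at 37 °C across several added MgCl2 levels (1–48 mM), then stopped with EDTA. Products were reverse transcribed from a substrate-complementary primer, PCR-amplified and sequenced (HiSeq 4000). Fitness is a variant's read proportion after selection over that before, normalised to wild type.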
Regarding C82G A120C A145C C150A C169G U176A, the reverse-splicing fitness was 0.0302.

Consider C82G A111U A145G C150U, for which the reverse-splicing fitness turned out to be 0.298.

As for C82G A111U A145G C150G, the reverse-splicing fitness amounted to 0.0339.

Turning to C82G A111U A145G C150A, the reverse-splicing fitness was determined as 0.0434.

On to C82G A111U C169A, for which the reverse-splicing fitness was 0.00938.

For C82G A111U C169G, the reverse-splicing fitness amounted to 0.00946.

C82G A111U C169U: the reverse-splicing fitness came out at 0.0134.

With C82G A111U U176G, the reverse-splicing fitness was found to be 0.0695.

As for C82G A111U U176C, the reverse-splicing fitness is 0.259.

For C82G A111U U176A, the reverse-splicing fitness stood at 0.214.

As for C82G A111U A145C C150A C169A U176A, the reverse-splicing fitness worked out at 0.0125.

On to C82G A111U A145C C150A C169A U176G, for which the reverse-splicing fitness amounted to 0.0075.

With C82G A111U A145C C150A C169A U176C, the reverse-splicing fitness was 0.00716.

C82G A111U A145G C150A C169U U176A: the reverse-splicing fitness came out at 0.0166.

Consider C82G A111U A145G C150A C169U U176C, for which the reverse-splicing fitness worked out at 0.0149.

C82G A111U A145G C150A C169U U176G: the reverse-splicing fitness amounted to 0.00791.

Consider C82G A111U A120U C150U C169A U176C, for which the reverse-splicing fitness is 0.00328.

As to C82G A111U A120U C150U C169A U176G, the reverse-splicing fitness was determined as 0.00241.

For the variant C82G A111U A120U C150U C169A U176A, the reverse-splicing fitness was 0.00512.

As for C82G A111U A145C C169G U176G, the reverse-splicing fitness stood at 0.00528.

As for C82G A111U A145C C169G U176C, the reverse-splicing fitness was found to be 0.0144.

Consider C82G A111U A145C C169G U176A, for which the reverse-splicing fitness amounted to 0.0258.

For C82G A120C A145C C150U C169A U176G, the reverse-splicing fitness was found to be 0.00525.

With C82G A120C A145C C150U C169A U176C, the reverse-splicing fitness is 0.00587.

For C82G A120C A145C C150U C169A U176A, the reverse-splicing fitness worked out at 0.0117.

With C82G A111U A145C C150U, the reverse-splicing fitness turned out to be 0.0722.

Regarding C82G A111U A145C C150A, the reverse-splicing fitness was found to be 0.0198.

Take C82G A111U A145C C150G: the reverse-splicing fitness worked out at 0.0354.

Consider C82G A111U C150U C169A U176A, for which the reverse-splicing fitness turned out to be 0.0188.

For C82G A111U C150U C169A U176G, the reverse-splicing fitness was determined as 0.00647.

As to C82G A111U C150U C169A U176C, the reverse-splicing fitness stood at 0.0148.

Take C82G A111U A145U C150A C169A U176A: the reverse-splicing fitness is 0.0149.

With C82G A111U A145U C150A C169A U176G, the reverse-splicing fitness was found to be 0.00732.

As to C82G A111U A145U C150A C169A U176C, the reverse-splicing fitness amounted to 0.0126.

Turning to C82G A111U A145C C150U C169G U176C, the reverse-splicing fitness was 0.0132.

Take C82G A111U A145C C150U C169G U176G: the reverse-splicing fitness turned out to be 0.00635.

For C82G A111U A145C C150U C169G U176A, the reverse-splicing fitness is 0.022.

In the case of C82G A120C A145C C150G, the reverse-splicing fitness stood at 0.0227.

As to C82G A120C A145C C150A, the reverse-splicing fitness stood at 0.0129.

As for C82G A120C A145C C150U, the reverse-splicing fitness amounted to 0.0403.

In the case of C82G A120C A145C C150U C169G U176G, the reverse-splicing fitness was 0.00532.

In the case of C82G A120C A145C C150U C169G U176A, the reverse-splicing fitness is 0.0259.

Turning to C82G A120C A145C C150U C169G U176C, the reverse-splicing fitness turned out to be 0.013.

Take C82G A111U A145U C150A C169U U176G: the reverse-splicing fitness came out at 0.00579.

C82G A111U A145U C150A C169U U176C: the reverse-splicing fitness was found to be 0.0129.

As for C82G A111U A145U C150A C169U U176A, the reverse-splicing fitness was determined as 0.0141.

Regarding C82G A111U A145C C150U C169A U176A, the reverse-splicing fitness was determined as 0.0133.

As for C82G A111U A145C C150U C169A U176C, the reverse-splicing fitness was found to be 0.00701.

With C82G A111U A145C C150U C169A U176G, the reverse-splicing fitness turned out to be 0.00702.

On to C82G A111U A145U C150G U176G, for which the reverse-splicing fitness turned out to be 0.0057.

For C82G A111U A145U C150G U176C, the reverse-splicing fitness was 0.0254.

For C82G A111U A145U C150G U176A, the reverse-splicing fitness came out at 0.0141.

Regarding C82G A111U A120U C150U C169U U176G, the reverse-splicing fitness was found to be 0.00215.

On to C82G A111U A120U C150U C169U U176A, for which the reverse-splicing fitness amounted to 0.0052.

With C82G A111U A120U C150U C169U U176C, the reverse-splicing fitness was 0.00402.

On to C82G A111U A145U C169G U176C, for which the reverse-splicing fitness is 0.0128.

For the variant C82G A111U A145U C169G U176A, the reverse-splicing fitness came out at 0.0122.

On to C82G A111U A145U C169G U176G, for which the reverse-splicing fitness came to 0.00618.

For the variant C82G A120C A145C C150G U176G, the reverse-splicing fitness was 0.00422.

On to C82G A120C A145C C150G U176A, for which the reverse-splicing fitness stood at 0.00907.

Consider C82G A120C A145C C150G U176C, for which the reverse-splicing fitness came out at 0.0144.

As for C82G A111U A145U C150U C169A U176A, the reverse-splicing fitness stood at 0.0143.

As to C82G A111U A145U C150U C169A U176C, the reverse-splicing fitness was found to be 0.0125.

On to C82G A111U A145U C150U C169A U176G, for which the reverse-splicing fitness stood at 0.00678.

Regarding C82G A111U A145C C150U U176A, the reverse-splicing fitness stood at 0.0473.

Take C82G A111U A145C C150U U176C: the reverse-splicing fitness was found to be 0.0544.

Turning to C82G A111U A145C C150U U176G, the reverse-splicing fitness worked out at 0.0188.

For the variant C82G A111U A145C C150G C169A U176A, the reverse-splicing fitness was found to be 0.00976.

For the variant C82G A111U A145C C150G C169A U176C, the reverse-splicing fitness stood at 0.00812.

Consider C82G A111U A145C C150G C169A U176G, for which the reverse-splicing fitness stood at 0.00713.

For the variant C82G A111U A120U C150G U176G, the reverse-splicing fitness came out at 0.0026.

On to C82G A111U A145U C150U C169U U176C, for which the reverse-splicing fitness amounted to 0.0136.

C82G A111U A145U C150U C169U U176A: the reverse-splicing fitness is 0.0142.

As for C82G A111U A145U C150U C169U U176G, the reverse-splicing fitness was 0.00609.

In the case of C82G A120C A145C C150A C169G, the reverse-splicing fitness came out at 0.00715.

For C82G A120C A145C C150A C169A, the reverse-splicing fitness stood at 0.00726.

Turning to C82G A120C A145C C150A C169U, the reverse-splicing fitness turned out to be 0.00799.

For the variant C82G A111U A145G C150A C169G U176A, the reverse-splicing fitness worked out at 0.0179.

As for C82G A111U A145G C150A C169G U176C, the reverse-splicing fitness turned out to be 0.0282.

Take C82G A111U A145G C150A C169G U176G: the reverse-splicing fitness was 0.00671.

Regarding C82G A111U A120U C169A, the reverse-splicing fitness amounted to 0.0043.

With C82G A111U A120U C169U, the reverse-splicing fitness amounted to 0.00476.

As for C82G A111U A120U C169G, the reverse-splicing fitness is 0.00462.

In the case of C82G A111U A145G C169A U176G, the reverse-splicing fitness amounted to 0.00602.
